Measured values reported in patent US20260008865A1.

Experiments:
[1] = target: SelSP1 (PSGL-1 sulfopeptide); test: SPR (SensiQ Pioneer), antibody captured on Protein G, SelSP1 as analyte, 25 °C, 1:1 model
[2] = target: SelSP1 (PSGL-1 sulfopeptide); test: SPR; SelSP1 surface (FC2) blocked with 40 µg/mL antibody, then 990 nM CCL27 as competitor; Rep. 1
[3] = target: SelSP1 (PSGL-1 sulfopeptide); test: SPR; SelSP1 surface (FC2) blocked with 40 µg/mL antibody, then 990 nM CCL27 as competitor; Rep. 2
[4] = target: SelSP1 (PSGL-1 sulfopeptide); test: SPR; SelSP1 surface (FC2) blocked with 40 µg/mL antibody, then 990 nM CCL27 as competitor; Rep. 3
[5] = target: SelSP1 (PSGL-1 sulfopeptide); test: SPR; SelSP1 surface (FC3) blocked with 40 µg/mL antibody, then 990 nM CCL27 as competitor; Rep. 1
[6] = target: SelSP1 (PSGL-1 sulfopeptide); test: SPR; SelSP1 surface (FC3) blocked with 40 µg/mL antibody, then 990 nM CCL27 as competitor; Rep. 2
[7] = target: SelSP1 (PSGL-1 sulfopeptide); test: SPR; SelSP1 surface (FC3) blocked with 40 µg/mL antibody, then 990 nM CCL27 as competitor; Rep. 3
[8] = target: SelSP1 (PSGL-1 sulfopeptide); test: SPR; SelSP1 surface blocked with 40 µg/mL antibody, then 990 nM CCL27 as competitor; average over FC2 and FC3 replicates
[9] = target: SelSP1 (PSGL-1 sulfopeptide); test: SPR; summary sentence in the description; target printed as PSGL-1, but the worked example used the PSGL-1 sulfopeptide SelSP1

Kd [1]: 16.4 nM
koff [1]: 0.00497 s⁻¹
kon [1]: 303000 M⁻¹ s⁻¹
Percent CCL27 Inhibition [2]: 57.1%
Percent CCL27 Inhibition [3]: 50.6%
Percent CCL27 Inhibition [4]: 53.5%
Percent CCL27 Inhibition [5]: 50.5%
Percent CCL27 Inhibition [6]: 43.1%
Percent CCL27 Inhibition [7]: 47%
Percent CCL27 Inhibition (Avg.) [8]: 50%
Kd [9]: 16.6 nM
B1: Parental antibody (antibody, V domains shown)
VH: DVQLVESGGGLVQPGGSRKLSCAASGFTFSSFGMHWVRQAPEKGLEWVAYISSASSTIYYADTVKGRFTISRDNPKNTLFLQMTSLRSEDTAMYYCASSYGYWGQGTTLTVSS
VL: DVVMTQTPLSLPVSLGDQASISCRSSRSLVHSNGNTYLHWYLQKPGQSPQLLIYKVSNRFSGVPDRFSGSGSGTDFTLKISRVEAEDLGVYFCSQTTHVPLTFGAGTRLELKR
